Experimental data from patent publication WO1997032021A1.

Key:
[1] = molecular target: HLA-A3 molecule on the T2-A3 cell line; experiment: T2-A3 MHC stabilisation, w6/32 indirect immunofluorescence, flow cytometry; peptide at 1 uM
[2] = molecular target: HLA-A3 molecule on the T2-A3 cell line; experiment: T2-A3 MHC stabilisation, w6/32 indirect immunofluorescence, flow cytometry; peptide at 10 uM
[3] = molecular target: HLA-A3 molecule on the T2-A3 cell line; experiment: T2-A3 MHC stabilisation, w6/32 indirect immunofluorescence, flow cytometry; peptide at 100 uM

Binder	Expression of MHC (FR), fluorescence ratio [1]	Expression of MHC (FR), fluorescence ratio [2]	Expression of MHC (FR), fluorescence ratio [3]
VLYYDFWSGY [HLA-A3 (1-10) peptide, based on CDR-H3 positions 1-10 of 105AD7]	1.2	1.8	1.8
DFWSGYLEY [HLA-A3 (5-13) peptide, based on CDR-H3 positions 5-13 of 105AD7]	1.8	1.3	1.3
